Drawing on patent US20260217863A1, “ANTIBODY OR PEPTIDE BINDING SPECIFICALLY TO RNASE A, IMMUNOASSAY DEVICE AND METHOD FOR DETECTING RNASE A, AND METHOD FOR COLLECTING RNASE A” (UIF (University Industry Foundation), Yonsei University, priority 2022, published 2026), this text covers fluorescence intensity, and Kd for 3 molecules.

Experiment [1] addresses Ribonuclease A (Type II-A) from bovine pancreas (bovine) (UniProt P61823). The experiment in a line: flow cytometry (FL1-H) of E. coli displaying the Fv variant, incubated with fluorescence-labeled RNase-A.
Experiment [2] has the same target. The experiment in a line: flow cytometry, E. coli surface-displayed Fv, titration of fluorescently labeled RNase A, fit with an adsorption model.

Ribonuclease A (Type II-A) from bovine pancreas (bovine), sequence (P61823 27-150): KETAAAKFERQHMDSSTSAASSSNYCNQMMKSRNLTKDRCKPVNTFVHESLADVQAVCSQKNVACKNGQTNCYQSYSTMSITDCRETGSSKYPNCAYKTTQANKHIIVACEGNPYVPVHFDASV

B1: Fv variant clone 5, surface-expressed on the outer membrane of E. coli (protein, part only; not given: AIDA-1 display anchor and linker, not shown: another chain or arm of the molecule; large carriers; small tags and cut ends)
VH: EVQLVESAAEVRRPGASVKITCKASGYSFSTYGIQWMRQAPGQRPEWLGWIHAGTGGTKYSRKFQGRITITRDTSANTVYLDLNSLTSEDTAVYYCARCGPDSDVMTDFWGQGTTVTVSS
Turning to B1, in experiment [1], the fluorescence intensity, at 3.125 µM fluorescence-labeled RNase-A was 31.5 a.u; the fluorescence intensity, at 6.25 µM fluorescence-labeled RNase-A amounted to 44.7 a.u; the fluorescence intensity, at 12.5 µM fluorescence-labeled RNase-A was determined as 72.3 a.u; the fluorescence intensity, at 25 µM fluorescence-labeled RNase-A turned out to be 108 a.u. In experiment [1], this molecule gave a fluorescence intensity, at 50 µM fluorescence-labeled RNase-A of 167 a.u and a fluorescence intensity, at 100 µM fluorescence-labeled RNase-A of 196 a.u. Moreover, in experiment [2], the Kd amounted to 23.8 µM.

B2: Fv variant clone 39, surface-expressed on the outer membrane of E. coli (protein, part only; not given: AIDA-1 display anchor and linker, not shown: another chain or arm of the molecule; large carriers; small tags and cut ends)
VH: EVQLVESAAEVRRPGASVKITCKASGYSFSTYGIQWMRQAPGQRPEWLGWIHAGTGGTKYSRKFQGRITITRDTSANTVYLDLNSLTSEDTAVYYCARDGTAKKSRKDDWGQGTTVTVSS
In the case of B2, in experiment [1], the fluorescence intensity, at 3.125 µM fluorescence-labeled RNase-A stood at 15.5 a.u; the fluorescence intensity, at 6.25 µM fluorescence-labeled RNase-A stood at 19.9 a.u; the fluorescence intensity, at 12.5 µM fluorescence-labeled RNase-A turned out to be 23.3 a.u; the fluorescence intensity, at 25 µM fluorescence-labeled RNase-A was 31.8 a.u. In addition, in experiment [1], the fluorescence intensity, at 50 µM fluorescence-labeled RNase-A stood at 37.8 a.u and the fluorescence intensity, at 100 µM fluorescence-labeled RNase-A was 51.9 a.u. Moreover, in experiment [2], the Kd amounted to 28.7 µM.

B3: Fv variant clone 23, surface-expressed on the outer membrane of E. coli (protein, part only; not given: AIDA-1 display anchor and linker, not shown: another chain or arm of the molecule; large carriers; small tags and cut ends)
VH: EVQLVESAAEVRRPGASVKITCKASGYSFSTYGIQWMRQAPGQRPEWLGWIHAGTGGTKYSRKFQGRITITRDTSANTVYLDLNSLTSEDTAVYYCARYGPVGRVKRDDWGQGTTVTVSS
On to B3, for which, in experiment [1], the fluorescence intensity, at 3.125 µM fluorescence-labeled RNase-A is 14 a.u; the fluorescence intensity, at 6.25 µM fluorescence-labeled RNase-A turned out to be 17.2 a.u; the fluorescence intensity, at 12.5 µM fluorescence-labeled RNase-A was determined as 23.8 a.u; the fluorescence intensity, at 25 µM fluorescence-labeled RNase-A turned out to be 37.5 a.u. In experiment [1], this molecule had a fluorescence intensity, at 50 µM fluorescence-labeled RNase-A of 47.9 a.u and a fluorescence intensity, at 100 µM fluorescence-labeled RNase-A of 69.7 a.u. The molecule also displayed a Kd in experiment [2] of 29.4 µM.
